Consider five molecules from patent US20170145113A1 (Genentech, published 2017).

In one experiment the target is h15H6.v1 HC-A71R variant. The experiment in a line: phage competition ELISA: phage-displayed Fab preincubated with soluble murine HtrA1, unbound phage captured on coated huHtrA1-PD-His, OD450. (In an ELISA, binding on a coated surface is turned into a signal by an enzyme label.)
In the next experiment the target is h15H6.v1 LC-S49Y variant. The description is as above.
In experiment [1] the target is T1, His-tagged human HtrA1 protease domain (human, UniProt Q92743 161-367).
T1 construct: His-tagged protease domain; also called huHtrA1-PD-His; huHtrA1-PD
T1 sequence (Q92743 other isoform, or with tags, fused parts or gaps limits assumed): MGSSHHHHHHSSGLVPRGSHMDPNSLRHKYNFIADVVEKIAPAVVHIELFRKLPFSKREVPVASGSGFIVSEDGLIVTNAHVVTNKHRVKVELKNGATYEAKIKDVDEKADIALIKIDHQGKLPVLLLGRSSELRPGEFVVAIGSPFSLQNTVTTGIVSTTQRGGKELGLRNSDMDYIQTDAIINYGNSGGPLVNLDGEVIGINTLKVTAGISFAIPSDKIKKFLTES
The experiment in a line: SPR (BIACORE), Fab. A general note: In SPR one partner is held on a chip, and binding of the other changes the refractive index at the surface.

The target of experiment [2] is T2, His-tagged recombinant murine HtrA1 protease domain (murine, UniProt Q9R118 156-367).
T2 construct: His-tagged protease domain; also called muHtrA1-PD-His; muHtrA1-PD
The experiment in a line: SPR (BIACORE T100), single-cycle kinetics; biotinylated HtrA1-PD-His on streptavidin, Fab injected. The text has this: (§1) To determine the binding affinity of anti-HtrA1 Fabs by single-cycle kinetics, (SPR) measurement with a BIACORE™ T100 instrument was used. Briefly, a series S sensor chip CM5 was activated with 1-ethyl-3-(3-dimethylamino-propyl)carbodiimide hydrochloride (EDC) and N-hydroxysuccinimide (NHS) reagents according to the supplier's instructions, and streptavidin (Pierce) was coupled to achieve approximately 2500 response units (RU), followed by blocking un-reacted groups with 1 M ethanolamine.
(§2) For kinetics measurements, biotinylated human or murine HtrA1-PD-His was first injected at 10 μl/min flow rate to capture approximately 150 RU at 3 different flow cells (FC), except for FC1 (which served as a reference), and then 5-fold serial dilutions of anti-HtrA1 Fab in HBS-P buffer (0.01M HEPES pH 7.4, 0.15 M NaCl, 0.005% surfactant P20) from low (0.48 nM) to high (300 nM) were injected (flow rate: 30 μl/min) one after the other in the same cycle with no regeneration between injections. The sensorgram was recorded and subject to reference and buffer subtraction before evaluating by BIACORE™ T100 Evaluation Software (version 2.0). Association rates (kₒₙ) and dissociation rates (koff) were calculated using a simple one-to-one Langmuir binding model. The equilibrium dissociation constant (KD) was calculated as the ratio koff/kₒₙ.

Experiment [3] addresses T1, His-tagged human HtrA1 protease domain. Described as above.
Source text: as §1, §2

Experiment [4] has the same target. The experiment in a line: BIACORE SPR, single cycle kinetic analysis; ligand streptavidin-captured biotin human HtrA1, analyte Fab.
Source text: as §1, §2

In experiment [5] the target is T2, His-tagged recombinant murine HtrA1 …. The experiment in a line: BIACORE SPR, single cycle kinetic analysis; ligand streptavidin-captured biotin murine HtrA1, analyte Fab.
Source text: as §1, §2

In experiment [6] the target is purified full-length human HtrA1 (human, UniProt Q92743 23-480). In words: cell-based or functional assay.
Sequence of purified full-length human HtrA1 (Q92743 23-480): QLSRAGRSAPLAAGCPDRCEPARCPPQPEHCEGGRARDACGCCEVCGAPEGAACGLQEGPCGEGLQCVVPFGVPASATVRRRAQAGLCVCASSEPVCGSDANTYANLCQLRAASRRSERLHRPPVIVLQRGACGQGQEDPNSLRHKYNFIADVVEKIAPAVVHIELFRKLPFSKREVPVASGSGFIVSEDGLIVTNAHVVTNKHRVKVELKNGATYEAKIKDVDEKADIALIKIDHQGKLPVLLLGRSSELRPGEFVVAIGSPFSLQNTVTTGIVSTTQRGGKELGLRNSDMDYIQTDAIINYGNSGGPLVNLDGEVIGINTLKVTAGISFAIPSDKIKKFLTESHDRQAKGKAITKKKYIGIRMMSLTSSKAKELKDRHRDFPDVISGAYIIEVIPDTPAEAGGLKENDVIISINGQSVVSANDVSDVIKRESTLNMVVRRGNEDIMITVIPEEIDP
Experiment [7] has as its target purified full-length murine HtrA1 (murine, UniProt Q9R118 23-480). In words: cell-based or functional assay.
The target of experiment [8] is T3, murine HtrA3 protease domain (murine, UniProt Q9D236 135-350, limits assumed).
T3 construct: domain: PD (protease domain); also called muHtrA3-PD; murine HtrA3-PD
T3 sequence (looked up): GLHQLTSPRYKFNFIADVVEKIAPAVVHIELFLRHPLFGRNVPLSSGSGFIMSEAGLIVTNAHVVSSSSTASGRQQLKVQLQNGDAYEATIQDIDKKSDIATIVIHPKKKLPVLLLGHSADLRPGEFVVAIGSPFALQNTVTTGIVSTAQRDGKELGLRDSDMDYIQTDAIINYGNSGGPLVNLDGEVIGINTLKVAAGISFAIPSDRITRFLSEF
In words: ELISA, hybridoma clone.

Experiment [9] concerns the target T4, murine HtrA4 protease domain (murine, UniProt A2RT60 160-371, limits assumed).
T4 construct: domain: PD (protease domain); also called muHtrA4-PD; murine HtrA4-PD
T4 sequence (looked up): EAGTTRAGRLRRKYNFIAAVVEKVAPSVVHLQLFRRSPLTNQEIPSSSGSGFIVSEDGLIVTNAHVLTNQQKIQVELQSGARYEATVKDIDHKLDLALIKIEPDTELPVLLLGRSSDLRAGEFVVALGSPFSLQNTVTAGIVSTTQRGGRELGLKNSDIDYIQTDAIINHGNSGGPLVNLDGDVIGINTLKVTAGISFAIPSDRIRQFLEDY
The experiment in a line: ELISA, hybridoma clone.

Experiment [10] deals with T2, His-tagged recombinant murine HtrA1 …. The experiment in a line: ELISA, antigen coated on plate, hybridoma clone. The procedure: (§3) ELISA was performed according to a standard protocol. Briefly, 96-well microliter ELISA plates (Greiner, Germany) were coated with 100 μl/well muHtrA1-PD-His or huHtrA1-PD-His (SEQ ID NO: 154) at 2 μg/ml in 0.05 M carbonate buffer (pH 9.6) at 4° C. overnight. After washing three times with wash buffer (0.05% TWEEN®20 in PBS, Sigma), plates were blocked with 100 μl ELISA assay diluents with BSA. 100 μl of cultured supernatants or diluted purified monoclonal antibodies (mAbs) were added and incubated for 1 h at room temperature. The plates were washed three times and incubated with HRP-conjugated goat anti-mouse IgG Fc for 1 h. After washing three times, bound enzyme was detected by addition of 100 μl/well of the TMB substrate (BioFX Laboratories) for 5 min. The reactions were stopped by adding 100 μl/well of stop reagent (BioFX Laboratories), followed by detection of color at absorbance 650 nm (A_{650 nm}).

For experiment [11], the target named is T1, His-tagged human HtrA1 protease domain. The experiment in a line: ELISA, antigen coated on plate, hybridoma clone. The procedure:
as §3

For orientation: Kd means a measure of binding affinity in units of concentration. Broadly, the koff is a measure of how fast the partners let go of each other. Usually kon stands for the second-order rate constant of association.

As to “His-tagged recombinant murine HtrA1 protease domain (from UniProt Q9R118 156-367) (enzyme)”, the results for the IC50 (read off the curve) with h15H6.v1 HC-A71R variant and with h15H6.v1 LC-S49Y variant were 0.1 nM and 0.6 nM, respectively.

B1: h19B12.v1 Fab (Fab, V domains shown)
VH: EVQLVESGGGLVQPGGSLRLSCAASGFTFSSYIMSWVRQAPGKGLEWVAYISNGGGTTYYSDTIKGRFTISRDNSKNTLYLQMNSLRAEDTAVYYCARQNFRSDGSSMDYWGQGTLVTVSS
VL: DIVMTQSPDSLAVSLGERATINCRASESVDSYGKSFMHWYQQKPGQPPKLLIYLASKLESGVPDRFSGSGSGTDFTLTISSLQAEDVAVYYCQQNNEDPYTFGQGTKVEIK
notes: Tested in Fab format
With B1, the “fold improvement of KD against m19B12” value in experiment [1] is approximately 2 fold. Further, the Kd in experiment [2] was 7.6 nM; in [3] it was 10.7 nM; in [4] it was 24 nM; in experiment [5] it was 6.65 nM. The koff in [2] amounted to 0.00091 s⁻¹; in experiment [3] it was 0.0016 s⁻¹; in [4] it was 0.00345 s⁻¹; in experiment [5], 0.00134 s⁻¹. For the same molecule, the kon worked out at 120000 M⁻¹ s⁻¹ in experiment [2], 150000 M⁻¹ s⁻¹ in experiment [3], 144000 M⁻¹ s⁻¹ in experiment [4] and 201000 M⁻¹ s⁻¹ in experiment [5].

B2: anti-HtrA1 hybridoma antibody clone 15H6 (antibody, V domains shown)
VH: QVQLQQSGAELVRPGASVTLSCKASGYTFTDSEMHWVKQTPVHGLEWIGGVDPETDGAAYNQKFKGKATLTADKSSSTAYMELRSLTSEDSAVYYCTRGYDYDYALDYWGQGTSVTVSS
VL: QIVLSQSPAILSASPGEKVTMTCRASSSVNFIHWYQQKPGSSPKPWISATSNLASGVPPRFSGSGSGTSYSLTISRVEAEDAATYYCQQWSSNPWTFGGGTKLEIK
notes: Murine mIgG2a, from hybridoma or recombinant from 293 cells; also called m15H6
Turning to B2, in experiment [6], the “IC50, FRET blocking assay, recombinant antibody from 293 cells” value is approximately 0.7 nM; the “IC50, FRET-based blocking assay (H2-Opt cleavage)” value worked out at 0.7 nM; the “fold improvement of IC50 against YW505.94” value is approximately 2 fold. Moreover, in experiment [7], the “IC50, FRET-based blocking assay (H2-Opt cleavage)” value came to 1.1 nM and the “fold improvement of IC50 against YW505.94” value was approximately 5 fold. In experiment [8], the binding result is on record as “no binding”. Also, in experiment [9], the binding result is “no binding”.

B3: anti-HtrA1 hybridoma antibody clone 20E2 (antibody, V domains shown)
VH: EVKLVESGGGLVQPGGSLKLSCAASGFTFSSYIMSWVRQTPEKRLEWVAYISNGGGTTYYPDTIKGRFTISRDNAKNTLYLQMNTLKSEDTAIYFCARQNFRSDGSSMDYWGQGTSVTVSS
VL: NIVLTQSPASLAVSLGQRATISCRASESVDTSGRSFMHWYQQKPGQPPRLLIYLASKLESGVPARFSGSGSRTDFTLTIDPVEADDAATYYCQQNNEDPYTFGGGTNLEIK
As to B3, the binding result is on record as “no binding” in experiment [8], “no binding” in [9], “binds” in experiment [10] and “binds” in experiment [11].

B4: anti-HtrA1 hybridoma antibody clone 3A5 (antibody, V domains shown)
VH: DVHLVESGGGLVRPGGSRKLSCEASGFTFSSFGMHWVRQAPEKGLEWVAFITSDSSTIYYADTVKGRFTISRDNPKNTLFLQMTSLRSEDTAMYYCTRSGDDYLDYWGQGTTLTVSS
VL: DIVLTQSPASLAVSLGQRATISCRASQSVSTSSSSYMHWYQQKPGQPPKVFIKYASNLESGVPARFSGSGSGTDFTLSIHPVEEEDTATYYCQHSWEIPFTFGGGTKLEIK
For the molecule B4, the binding result in [8] is “no binding”; in [9] it was “no binding”; in [10] it was “binds”; in experiment [11] it was “binds”.
